Measurements from PMC10065947 (Nature chemical biology, 2022).

Biological target: TAMRA-APP12 (peptide S1) (TAMRA label (position not given); C-terminal amide)
Experiment: fluorescence polarisation

B1: naïve fusion of WT Fyn-SH3 and WT COMT (enzyme)
chain: not shown
  Kd: 330 nM
